Laboratory results from the supplement of paper PMC12042874.
± gives the uncertainty stated by the source.

Experiment: amyloid nucleation score (Sup35N fusion, yeast selection) (log enrichment); library NNK2; higher = more nucleation; inactive = no reads after selection
In short: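 On medium lacking adenine and uracil, psi-negative yeast expressing peptides of 20 random codons fused to Sup35N were grown 7 days at 30°C after a 24-hour induction with 100 μM copper sulfate. Illumina sequencing of input and output plasmid inserts gave the reads, and sequences under 100 input reads were excluded. The nucleation score is the DiMSum log enrichment of output over input reads, centred on the mode score of non-aggregating sequences.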

Substance | amyloid nucleation score
AIIGKFVGVCCD | -0.931 ± 1.1
AILLGLWCCTWFREALACLA | 1.04 ± 0.29
AIPVYFVLLMSITPLQLVVM | 1.38 ± 0.15
AIQQTQLLCIENMVGLFVVR | 0.58 ± 0.64
AIRGRLKLVDMRHVIPKLKR | 1.21 ± 0.33
AIVGEMMALFYDNLSRGGVH | -0.505 ± 0.47
AIVSMFGVITY | -2.57 ± 0.62
AKLPKPSRLHQRLTKQTV | 1.19 ± 0.38
AKLRHWDCHFTR | 0.405 ± 0.2
AKSNLVDFYTFWSTIECLTM | -0.808 ± 0.48
ALFMDPFAVTLMRGL | 0.137 ± 0.54
ALGYSRLTEYGLDRMVQTAC | 0.908 ± 0.52
ALINHWNLVTFS | inactive
ALIRFCTSW | 0.588 ± 0.16
ALPPPVKELPWISRFRQWGR | 1.22 ± 0.47
ALTVKSQLCG | -1.71 ± 1.1
ALWTLNDSSPDYKSPYTGGS | 0.508 ± 0.6
ALYFVIQLPV | -0.677 ± 0.63
AMLRPQTDHGVSSIHSLIIG | inactive
AMRFLALAWWTPGFSIGELM | 4.846 ± 0.035
AMSECQHKMQWAAFSVFPGQ | 5.91 ± 0.089

Substance | amyloid nucleation score
AMWESLP | 1.41 ± 0.25
AMWFN | 0.932 ± 0.47
AMYLPWARCSISPTNLIFNL | -1.1 ± 0.42
ANGGYMVYSFAEEYYYDWCT | -0.063 ± 0.29
ANMLRWLNFETFAVSRNLAI | 0.009 ± 0.74
ANMTSHEFRWKSN | -0.168 ± 1.1
ANNICCGASEKYGRWASTID | -0.76 ± 1
ANYMRYYSGLICFTESRYMS | 1.5 ± 0.17
APGWKLMNTSPNRMSTLNLQ | -0.633 ± 1.1
APHSLVVGCTVVLF | 7.589 ± 0.037
APRWWFYVDSY | 0.237 ± 1
AQCAYTTDGFPFLCWRSGTF | 0.701 ± 0.6
ARCTKINLGPYRGSINSLFW | inactive
ARFILFVALFWKFLY | 0.431 ± 0.46
ARFWWALGNLCERIAGNDWV | 0.216 ± 0.44
ARGGKLLSCFCSGWRLDHVR | 9.958 ± 0.051
ARLLTRNINESNRFI | 0.065 ± 0.28
ARLLWMRP | inactive
ARMITWGRNMILTPSPMRHK | -0.783 ± 1
ARMSFWRRRPLLLSLRRSGV | 0.379 ± 0.44
ARNWVHNCFWSHISFTSIA | 1.59 ± 0.13

Substance | amyloid nucleation score
ARQDYWIRWLTALSMMYGSG | -0.071 ± 0.31
ARSMVMHYFWGSTLAPESKF | -0.801 ± 0.45
ARTKVIY | -1.34 ± 0.75
ARTLWY | -0.522 ± 0.28
ARVIECLHGRN | -0.147 ± 0.44
ASITIHSFKMRTYTRAITRE | 3.92 ± 0.064
ASLLGQKSAVGILRIHSKLY | -0.573 ± 1.1
ASPFRF | 0.816 ± 0.74
ASPSHACGLC | 2.12 ± 0.15
ASQFCNKSSSYRDSRYLYTL | -0.802 ± 0.38
ASSTRRSRSFNIGILCMFRM | 5.66 ± 0.06
ASVCHTLVGILYDDEGARTR | 0.85 ± 0.4
ATFVIY | -0.603 ± 1
ATIGSLWRNYNERLFST | 4.06 ± 0.089
ATPLSGMVFNWSFEWQGCLL | 0.949 ± 0.18
AVIDIIKRTSCTCDESCCIL | 0.503 ± 0.31
AVIVAIFCSSGYYRHFYTFT | -0.214 ± 1
AVLFNDTWGGFAPNWYLLLS | 0.474 ± 0.38
AVNGQGDS | -0.231 ± 0.43
AVPCNC | -0.216 ± 0.62
AVRPGSRSWGVIRGVNSTFL | 1.08 ± 0.43

Substance | amyloid nucleation score
AVSYVDILAFGLMFQKSLGK | 5.74 ± 0.063
AVVDH | 0.336 ± 0.41
AVVIWAKML | 0.372 ± 0.27
AVYCTL | 0.088 ± 0.35
AWDEINYD | 0.292 ± 0.56
AWETFELVLY | -0.145 ± 0.76
AWHIPLTCGLHVIFLGR | inactive
AWLVLWDIAI | 0.583 ± 0.36
AWLYFVLFNRVTCCMTNVEE | 9.571 ± 0.037
AWMRDLCSVYRCVGCDLLWA | 6.25 ± 0.081
AWYKFIITMPFIFKSDITST | -0.454 ± 0.54
AYFTYDNANLFDPFTRYTIE | 0.073 ± 0.55
AYHAMVCYINLFSDVYLHGY | 4.98 ± 0.089
AYIARYNPTSLNRVEYPPDD | 1.49 ± 0.58
AYKNYIPVVSVH | -1.37 ± 1.1
AYRLGFNVMLTDAVVARDIL | 0.512 ± 0.66
AYRWMDSSSTRFGTGLG | 0.895 ± 0.81
AYWYSQRAMGFKHSLFLT | -0.921 ± 0.41
AYYFVLNVSTNLGNLGRTIL | 4.35 ± 0.11
CACDNHIVNRSESHCYGSLR | -0.293 ± 0.39
